Molecular target: the molecule itself
Assay: cryo-EM structure; single-particle cryo-EM of purified YnaI in amphipols; 20 mmol/L Mes pH 6.5, 200 mmol/L NaCl, 5 mmol/L DTT; 0.1 mg/mL on grids; homoheptamer

B1: YnaI channel (MscS-like mechanosensitive channel of E. coli) (natural protein, UniProt P0AEB5 1-343, looked up)
chain: MIAELFTNNALNLVIIFGSCAALILMSFWFRRGNRKRKGFLFHAVQFLIYTIIISAVGSIINYVIENYKLKFITPGVIDFICTSLIAVILTIKLFLLINQFEKQQIKKGRDITSARIMSRIIKITIIVVLVLLYGEHFGMSLSGLLTFGGIGGLAVGMAGKDILSNFFSGIMLYFDRPFSIGDWIRSPDRNIEGTVAEIGWRITKITTFDNRPLYVPNSLFSSISVENPGRMTNRRITTTIGLRYEDAAKVGVIVEAVREMLKNHPAIDQRQTLLVYFNQFADSSLNIMVYCFTKTTVWAEWLAAQQDVYLKIIDIVQSHGADFAFPSQTLYMDNITPPEQGR
stoichiometry N: 7

Reference: publication PMC6019658 (Protein & Cell, 2017)
